Experimental findings from the supplement of paper PMC12042874 are described below.

± gives the uncertainty stated by the source.

The data set is described as follows: amyloid nucleation score (Sup35N fusion, yeast selection) (log enrichment); library NNK2; higher = more nucleation; inactive = no reads after selection. Put shortly: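 Using DiMSum, nucleation scores were taken as the log enrichment of output over input reads, centred on the mode score of non-aggregating sequences. The input and output reads came from Illumina sequencing of plasmid inserts, with sequences under 100 input reads excluded. The yeast were psi-negative, expressed Sup35N fused to peptides of 20 random codons, were induced with 100 μM copper sulfate for 24 hours, and were grown 7 days at 30°C on medium lacking adenine and uracil.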
For SRLYGLDCRILFVNFYTKLP, the amyloid nucleation score entry is “inactive”. In the case of SRNIMLGWVPWYYCWKAPSI it was 0.034 ± 0.63; in that of SRNISQKLHTYMTYGSKVGY, -0.229 ± 0.32. The result for SRNNIAQFCSLHAN reads “inactive”; that for SRPDLHHAKALYFNDLRRE, 0.232 ± 0.27. Substance SRRDGCGAPSKTSNWA registered an amyloid nucleation score of 0.64 ± 0.8. As for SRRFFQKIRLWGMTDQQKGM, the amyloid nucleation score was determined as 3.08 ± 0.072. The result for SRSVLSNSDTPTNNAVNCVA reads -0.027 ± 0.56. The result for SRTIGTMQLVTMNWCFRKEA reads 5.37 ± 0.045.

Consider SRTRGTLDGS, for which the amyloid nucleation score came out at 0.241 ± 0.36. SRVIVGLWYDGRVKPLELCM showed an amyloid nucleation score of 0.342 ± 0.62. The result for SRVSLHNES reads -0.453 ± 1.1; that for SRYGRTEGRFFVRRRGMHHG, 0.21 ± 0.32. In the case of SSDYGIQPCFTTTSLLLLFN it was -0.914 ± 0.48; in that of SSEEFNVCYYGDPYKSVRTR, 0.341 ± 0.47. In the case of SSFIRGLTSKAG it was 1.05 ± 0.57; in that of SSFRVELHRCFVKVFLLLY, -0.266 ± 1; in that of SSIDMSCQHHLVALIRGFKE, 2.24 ± 0.2. SSKSCVPQVLINILDDSTVN showed an amyloid nucleation score of -0.632 ± 0.79.

With SSLSGYGSYGLLPRWLRLVT, the amyloid nucleation score was determined as 1.81 ± 0.4.

With SSLTANGNNSMT, the amyloid nucleation score was -0.173 ± 0.63. In the case of SSLTPHWRVRKYDWYSIGSG it was -0.8 ± 0.41. SSMERCEHLQVLEAFLWSVE yielded an amyloid nucleation score of 1.87 ± 0.16.

With SSMLANSMWRSFSVSYGTML, the amyloid nucleation score is 0.929 ± 0.36.

In turn, SSMQPHLVSSVL displayed an amyloid nucleation score of 3.7 ± 0.07. The result for SSMSLWFMHYRNSKSCL reads -0.721 ± 0.33; that for SSMSNIEE, -1.15 ± 0.42. In the case of SSNLKYGKSIFGNSFLQSVF it was -1.27 ± 0.62; in that of SSRHNPIWLRTAMDGDLGFA, 0.864 ± 0.5; in that of SSRRV, 0.497 ± 0.56. The result for SSSIRVRTDEHMEVAGKRLS reads 0.217 ± 0.27.

Regarding SSSRS, the amyloid nucleation score turned out to be 0.66 ± 0.62. The result for SSSSPHLDNLLGSGRLEIPS reads 0.56 ± 0.56; that for SSSWLCYTSFWYVNHSRRSL, 8.051 ± 0.043. Regarding SSTEMSFYMIHKIFAVY, the amyloid nucleation score entry is “inactive”. In the case of SSTFCS it was 0.405 ± 0.64.

Substance SSTIITSLTHFCSTGDWEVV yielded an amyloid nucleation score of -0.434 ± 0.24. The result for SSTYIERGLSHGKDRT reads 0.731 ± 0.46. The result for SSWLRINRIYLYEQL reads -0.305 ± 1; that for SSYGLVKR, 0.655 ± 0.35.

Consider SSYNCPHINVCSPSAPNTQM, for which the amyloid nucleation score result was “inactive”. SSYTLGFFRCNRFWCLCIDC yielded an amyloid nucleation score of -1.2 ± 0.56. The result for STASLHGVMLGMRLKNPLGV reads -0.97 ± 0.63; that for STCVGEYLHCSLSCAGMVLL, 6.593 ± 0.049; that for STELYARMVKCCVGIADYTD, 0.491 ± 0.66.

Substance STFLCVLTGMCCMARMS showed an amyloid nucleation score of 0.54 ± 0.64. For the substance STIEAGCTVVCA, the amyloid nucleation score was 0.24 ± 0.49. In the case of STILTSVFMFWVCGCFNNKT it was 7.03 ± 0.078; in that of STKVR, 1.3 ± 0.32; in that of STMAFWSYHGWCYGVLIL, -0.898 ± 0.61. The result for STMVVRVFIGNVFMSFNMIR reads 4.36 ± 0.059; that for STQLDSKILINLRFFRMSIV, -0.081 ± 1.1. The result for STRLEVLKLERKIMSSKLFL reads 0.699 ± 0.18. Substance STSIAVANHWVSYFFVSSGL yielded an amyloid nucleation score of 8.998 ± 0.038.

STSICYFLYRLWSHISLNSL: the amyloid nucleation score result was “inactive”.

STSSKVGVEAYTRDDRHLLS displayed an amyloid nucleation score of 1.01 ± 0.19. In the case of STWLS it was -0.626 ± 1.1. The result for STWPIGPSCSLIVCREDCET reads 1.45 ± 0.34. The result for SVCFFVLFYIYSYCRHVMKW reads “inactive”; that for SVCLSPYLSLNYFYWWNSKR, 8.377 ± 0.046.

In turn, SVCSSRGDAMSGVLPCAGGL returned an amyloid nucleation score of 0.124 ± 0.55. In the case of SVDSLWQYQSFRALFPCFMS it was “inactive”. The result for SVEFVLMRLGQLT reads 4.18 ± 0.058; that for SVFAKGISAVLLGACLRIAA, 1.03 ± 0.25.

Regarding SVFVGLRLGKAS, the amyloid nucleation score is 0.11 ± 0.28.

In turn, SVFVYYGFQENSAFSIWLAP registered an amyloid nucleation score of -0.96 ± 0.54.

SVGMKLRREEFGRSAVRAVL: the amyloid nucleation score worked out at 0.901 ± 0.28. The result for SVINYVFMGDHPYHNVIFRF reads 7.576 ± 0.051. As to SVLSLFWLFTDFLVVSHDIL, the amyloid nucleation score is -0.784 ± 1.1. In the case of SVNFSANRRNIDGFERAGPA it was -0.476 ± 1.1; in that of SVNNHGRLYVWLERLSYTTF, 2.24 ± 0.14; in that of SVRAVRMWIMDRNAARRMSG, 0.997 ± 0.17. The result for SVRHCLSLSSM reads “inactive”. In the case of SVSIPCNNCCRLLCRMFKLC it was -0.716 ± 0.28; in that of SVTRRVSYRSYLVLVGEWKQ, 0.901 ± 0.32; in that of SVVGSYYI, -0.878 ± 0.36. SVVRTRTRTVRVMETWISVW showed an amyloid nucleation score of 0.237 ± 1.

Substance SVWPGRSAEASRFGFGAGAD came in with an amyloid nucleation score of 0.528 ± 0.49. The result for SVYHLRLI reads -0.494 ± 0.42; that for SVYLNPHPTLMGNQSVLKLI, 1.29 ± 0.66. The result for SWGLRTWF reads 1.06 ± 0.39; that for SWINLQVS, -1.5 ± 0.75; that for SWLYIQFFNLVLKTIVGLGV, 0.026 ± 1.1.

SWPPKAQLMAVARCSAREAD: the amyloid nucleation score was -0.337 ± 1.1. The result for SWQDSLYRAQCFLCSWSKTV reads -0.575 ± 0.34; that for SWWYSKELKSRSAILATMMK, -0.151 ± 0.28. SYADRVILLVSCVVPWAPLR had an amyloid nucleation score of 3.31 ± 0.15. Consider SYCSL, for which the amyloid nucleation score came to 0.548 ± 0.38. SYFLGFVRYAVILSGMLLST registered an amyloid nucleation score of -0.281 ± 0.56. For the substance SYGLLKYGI, the amyloid nucleation score was -0.891 ± 0.35. The result for SYKMGEFTTFSLSRICK reads 1.12 ± 0.27; that for SYRELIYRDWLYRHVTL, 1.1 ± 0.11. The result for SYSMLIMFFFVIKYRSDFQL reads “inactive”; that for SYSPSVQ, -0.043 ± 0.55; that for SYTSAYSRYIWRHQIIMGKK, -1.11 ± 0.42. In the case of SYVVGRFNLSRCHLSCGLVS it was “inactive”; in that of SYWKTSKCMTKLLGCNM, -0.243 ± 0.45; in that of SYYSNSLVGDFPVPISNSVM, -0.249 ± 1.1.

In the case of TAASISIDRTKSMPLSDRMY, the amyloid nucleation score entry was “inactive”. The result for TAFVSHL reads -0.288 ± 1.1; that for TAGSTSSEADISLF, 4.02 ± 0.13; that for TAHHITSVWYVVLVRLRFRQ, 1.76 ± 0.35.

Substance TAKHDYFLSEESRRLYSSKY displayed an amyloid nucleation score of 2.31 ± 0.063. In the case of TANLKDSGQSYFKTRSVWTF it was “inactive”.

As for TAVCKISPQQWAGCHLIHRH, the amyloid nucleation score was 5.3 ± 0.095. In the case of TAVERVSTR it was 4.94 ± 0.08; in that of TAYSA, 0.521 ± 0.41. The result for TCCKLEDSYSWSALKLTSLA reads 1.27 ± 0.35; that for TCGYGLSWLSGSPSMIMWMW, 0.009 ± 0.63. The result for TCLMDGSTCTRFGGPLEPMC reads 0.028 ± 0.79; that for TCLRSIVVVFLALGLDSFFW, -0.177 ± 0.3; that for TCSSPTMKSYMNHCLHVDSF, 0.516 ± 0.47. TCVVIQGIRGWGWMSVSFMP registered an amyloid nucleation score of -0.829 ± 0.63. In the case of TDANESDR it was 0.905 ± 0.36. The result for TDDMCYSEMYIRCVRLFEIV reads 2.34 ± 0.11; that for TDNHFVTRCTYVAFQLTYKV, -0.375 ± 1.1. In the case of TDSRFLWGSKRNHCVRWCML it was -0.242 ± 1.1; in that of TDVFCLDKSVQTRILTEVAT, -0.439 ± 0.41; in that of TDYVRHKRRNYCLL, 1.12 ± 0.43. As to TEDVDL, the amyloid nucleation score stood at 1.5 ± 0.2.

Turning to TERLICMRTSMPSFIYVFWD, the amyloid nucleation score was -0.847 ± 0.54. With TEVGCYFYTWRICIYNDTRA, the amyloid nucleation score worked out at 2.28 ± 0.11. The result for TFCVNFARRVSLRSVLATIG reads 0.034 ± 0.43; that for TFDLQFELFMGDRTLSLL, -0.038 ± 0.29. In the case of TFFLITDTSVMEEM it was 0.072 ± 0.79; in that of TFGCEPVGPVA, 0.409 ± 0.8; in that of TFGLA, 1.06 ± 0.4. The result for TFGTQELELTD reads “inactive”; that for TFKVVSKDNI, -0.317 ± 0.41. The substance TFLWLLLY displayed an amyloid nucleation score of 6.754 ± 0.034. In the case of TFMTAMVVWSVSLGYPLLRR it was 1.24 ± 0.23; in that of TFNVYTVSLDVCDYRGGHGL, 6.602 ± 0.049; in that of TFNYHVTYFLGHFFSTYGRF, 3.49 ± 0.064. The result for TFRDYQYMYFRSRNII reads 0.034 ± 1.1; that for TFRPFQVTSHVSLRDMMGIS, 0.132 ± 0.3. In turn, TFSCCACWGCFTRNV returned an amyloid nucleation score of 10.55 ± 0.047.

Substance TFSLAVVYRFDDAFTLRVGD displayed an amyloid nucleation score of 6.135 ± 0.05. The result for TFSWMTPNWRSHYMLDCDPG reads -0.502 ± 0.79. The result for TFWTANISSADTSSFFY reads 0.272 ± 0.34.
